T1: human fibrin α-chain (148-160) amyloid fragment with Lys157Gly mutation (FP13), aggregated
T1 chain: KRLEVDIDIGIRS

T2: freshly dissolved FP13 K157G
T2 chain: KRLEVDIDIGIRS

T3: non-amyloid fragment FP10 of human fibrin α-chain (148-157)
T3 chain: KRLEVDIDIK

T4: recombinant human β2-glycoprotein I, P02749
T4 chain: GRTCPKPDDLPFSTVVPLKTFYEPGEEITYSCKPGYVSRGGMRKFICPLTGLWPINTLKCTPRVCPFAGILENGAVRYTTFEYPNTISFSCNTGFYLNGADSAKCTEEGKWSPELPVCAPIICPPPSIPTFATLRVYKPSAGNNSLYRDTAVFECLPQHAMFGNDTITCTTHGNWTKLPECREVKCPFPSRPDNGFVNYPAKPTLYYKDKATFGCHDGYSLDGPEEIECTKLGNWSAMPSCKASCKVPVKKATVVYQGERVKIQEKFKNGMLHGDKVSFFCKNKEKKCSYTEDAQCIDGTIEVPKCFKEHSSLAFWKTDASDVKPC

T5: β2-glycoprotein I purified from fresh human plasma, P02749
T5 chain: T4 chain

B1: factor XII purified from human plasma (protein)
chain: IPPWEAPKEHKYKAEEHTVVLTVTGEPCHFPFQYHRQLYHKCTHKGRPGPQPWCATTPNFDQDQRWGYCLEPKKVKDHCSKHSPCQKGGTCVNMPSGPHCLCPQHLTGNHCQKEKCFEPQLLRFFHKNEIWYRTEQAAVARCQCKGPDAHCQRLASQACRTNPCLHGGRCLEVEGHRLCHCPVGYTGAFCDVDTKASCYDGRGLSYRGLARTTLSGAPCQPWASEATYRNVTAEQARNWGLGGHAFCRNPDNDIRPWCFVLNRDRLSWEYCDLAQCQTPTQAAPPTPVSPRLHVPLMPAQPAPPKPQPTTRTPPQSQTPGALPAKREQPPSLTRNGPLSCGQRLRKSLSSMTRVVGGLVALRGAHPYIAALYWGHSFCAGSLIAPCWVLTAAHCLQDRPAPEDLTVVLGQERRNHSCEPCQTLAVRSYRLHEAFSPVSYQHDLALLRLQEDADGSCALLSPYVQPVCLPSGAARPSETTLCQVAGWGHQFEGAEEYASFLQEAQVPFLSLERCSAPDVHGSSILPGMLCAGFLEGGTDACQGDSGGPLVCEDQAAERRLTLQGIISWGSGCGDRNKPGVYTDVAYYLAWIREHTVS
B2: tissue-type plasminogen activator (tPA) (protein)
chain: SYQVICRDEKTQMIYQQHQSWLRPVLRSNRVEYCWCNSGRAQCHSVPVKSCSEPRCFNGGTCQQALYFSDFVCQCPEGFAGKCCEIDTRATCYEDQGISYRGTWSTAESGAECTNWNSSALAQKPYSGRRPDAIRLGLGNHNYCRNPDRDSKPWCYVFKAGKYSSEFCSTPACSEGNSDCYFGNGSAYRGTHSLTESGASCLPWNSMILIGKVYTAQNPSAQALGLGKHNYCRNPDGDAKPWCHVLKNRRLTWEYCDVPSCSTCGLRQYSQPQFRIKGGLFADIASHPWQAAIFAKHRRSPGERFLCGGILISSCWILSAAHCFQERFPPHHLTVILGRTYRVVPGEEEQKFEVEKYIVHKEFDDDTYDNDIALLQLKSDSSRCAQESSVVRTVCLPPADLQLPDWTECELSGYGKHEALSPFYSERLKEAHVRLYPSSRCTSQHLLNRTVTDNMLCAGDTRSGGPQANLHDACQGDSGGPLVCLNDGRMTLVGIISWGLGCGQKDVPGVYTKVTNYLDWIRDNMRP

What was measured:
[1] = molecular target: glycated human haemoglobin (Hb-AGE), P69905
glycated human haemoglobin (Hb-AGE), P69905, sequence (P69905 2-142, chain 1 of 2): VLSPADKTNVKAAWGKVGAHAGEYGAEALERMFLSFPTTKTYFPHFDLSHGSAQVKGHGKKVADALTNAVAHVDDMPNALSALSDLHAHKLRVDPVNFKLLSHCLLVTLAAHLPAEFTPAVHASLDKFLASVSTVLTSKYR
glycated human haemoglobin (Hb-AGE), P69905, sequence (chain, as listed by the source, chain 2 of 2): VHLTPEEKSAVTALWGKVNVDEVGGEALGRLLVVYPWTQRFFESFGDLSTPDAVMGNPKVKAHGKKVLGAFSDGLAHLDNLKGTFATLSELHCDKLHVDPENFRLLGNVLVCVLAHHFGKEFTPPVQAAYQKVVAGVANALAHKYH

[2] = molecular target: T1, human fibrin α-chain (148-160) amyloid …
[3] = molecular target: human amyloid-β (Aβ) (1-40) Dutch type
[4] = molecular target: T2, freshly dissolved FP13 K157G
[5] = molecular target: native haemoglobin (Hb), P69905
native haemoglobin (Hb), P69905, sequence (P69905 2-142, chain 1 of 2): as the sequence (P69905 2-142, chain 1 of 2) above
native haemoglobin (Hb), P69905, sequence (chain, as listed by the source, chain 2 of 2): as the sequence (chain, as listed by the source, chain 2 of 2) above

[6] = molecular target: T3, non-amyloid fragment FP10 of human …
[7] = molecular target: T4, recombinant human β2-glycoprotein I, …
[8] = molecular target: T5, β2-glycoprotein I purified from fresh …

Row | Protein | activation of factor XII (conversion of Chromozym PK by kallikrein) (mIAPP) | factor XII auto-activation (substrate S-2222) [1] | activation of factor XII (conversion of Chromozym PK by kallikrein) (LAM12) | activation of factor XII (conversion of Chromozym PK by kallikrein) [2] | factor XII auto-activation (substrate S-2222) [2] | activation of factor XII (conversion of Chromozym PK by kallikrein) [3] | factor XII auto-activation (substrate S-2222) [3] | factor XII auto-activation (substrate S-2222) [4] | factor XII auto-activation (substrate S-2222) [5] | activation of factor XII (conversion of Chromozym PK by kallikrein) (TTR11) | activation of factor XII (conversion of Chromozym PK by kallikrein) [6] | tPA-mediated conversion of Plg to Pls (substrate S-2251) [7] | tPA-mediated conversion of Plg to Pls (substrate S-2251) [8]
1 | B1 | non-amyloid controls FP10 and mIAPP do not activate factor XII | All three amyloid-like aggregates are able to induce factor XII auto-activation | LAM12 and TTR11 stimulate factor XII activation, to a similar extent as kaolin | amyloid-like peptide aggregates of FP13 and Aβ stimulate the activation of factor XII | All three amyloid-like aggregates are able to induce factor XII auto-activation | amyloid-like peptide aggregates of FP13 and Aβ stimulate the activation of factor XII | All three amyloid-like aggregates are able to induce factor XII auto-activation; the potency of the Aβ(1-40) E22Q was somewhat lower | did not or hardly auto-activate factor XII (not shown) | did not or hardly auto-activate factor XII (not shown) | LAM12 and TTR11 stimulate factor XII activation, to a similar extent as kaolin | non-amyloid controls FP10 and mIAPP do not activate factor XII |  | 
2 | B2 |  |  |  |  |  |  |  |  |  |  |  | Recombinant β2GPI, but not β2GPI purified from fresh plasma stimulate tPA-mediated conversion of Plg to Pls | but not β2GPI purified from fresh plasma
